According to paper PMC11580873:

Target: V5-FoTO1 (Taxus media)
Test: co-IP

## T5αH-HA (from UniProt Q6WG30 1-499) (enzyme)
  fold change of the co-IP signal with 400 uM taxadiene in the lysate: 4 fold
